The target in assay [1] is endogenous SHP-1 of HEK cells (UniProt P29350 1-595). Description: anti-SHP-1 co-immunoprecipitation from HEK lysates (FIG. 26). How it is done:
Equal aliquots of HEK lysates (bottom) were incubated with either rabbit preimmune (lane 1) or anti-SHP-1 (lane 2) IgGs, and protein A agarose beads. Lysates and immune complexes (top) were analyzed for GIV, SHP-1, and Gαi3 by immunoblotting (IB). SHP-1 was immunoprecipitated efficiently and specifically by anti-SHP-1 (lane 2), but not control (lane 1) IgG. GIV, but not Gαi3 was detected in SHP-1-bound protein complexes (lane 2).

A further assay has as its target His-Gαi3. Description: cell-based or functional assay.
Assay [2] deals with T1, GST (alone) (UniProt P08515 1-218 = GST).
T1 construct: Negative control on glutathione beads
T1 sequence (P08515 whole entry): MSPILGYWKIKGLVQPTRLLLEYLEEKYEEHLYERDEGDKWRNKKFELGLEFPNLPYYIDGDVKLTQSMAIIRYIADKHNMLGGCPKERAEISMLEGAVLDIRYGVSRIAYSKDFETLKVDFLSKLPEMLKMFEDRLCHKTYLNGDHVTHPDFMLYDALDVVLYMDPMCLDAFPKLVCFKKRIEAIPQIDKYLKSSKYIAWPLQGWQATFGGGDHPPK
Description: GST pulldown, GIV-CT pAb blot (FIG. 20B). The method, then:
Equal aliquots (˜3 μg) of His-GIV-CT were incubated with ˜30 ug of GST and ˜25 μg GST-SHP-1 immobilized on glutathione beads. Bound His-GIV-CT was analyzed by immunoblotting (IB) with GIV-CT pAb. Relative amounts of bead-bound GST and GST-SHP-1 were confirmed by ponceau S staining. (B) His-GIV-CT preferentially binds the C-terminal SH2 domain of SHP-1. Equal aliquots (˜3 μg) of His-GIV-CT were incubated with ˜30 μg GST, wild-type GST-SHP-1, GST-SHP-1 lacking both SH2 domains (ΔN+CSH2), and GST-SHP-1 lacking only the N-terminal SH2 domain (ΔNSH2). Bound His-GIV-CT was analyzed by immunoblotting (IB) with GIV-CT pAb. His-GIV-CT specifically bound wild-type GST-SHP-1, but not GST alone (lanes 3, 4); binding was reduced in the absence of both SH2 domains (lane 5), but restored when the C-terminal SH2 domain was present (lane 6).
To determine if the GIV-SHP-1 interaction observed in vivo is direct, in vitro binding assays were carried out using recombinant His-GIV-CT and GST or GST-SHP-1 immobilized on glutathione beads. […] Because SHP-1 is recruited to its substrates by one or both of its in-tandem SH2 domains (30), whether the SH2 domains, and if so, which one (NSH2 or CSH2) is responsible for mediating the direct interaction of SHP-1 with GIV's C-terminus was assessed. […]

The target of assay [3] is T1, GST (alone). Description: GST pulldown with a panel of GST-tagged SH2 adaptors (FIG. 4A). How it is done: FIG. 4 illustrates that GIV interacts with p85α via its phosphorylated C-terminus. […] Mock-treated GIV-CT and in vitro EGFR-phosphorylated pY GIV-CT were incubated with ˜35 μg of the indicated GST-SH2 adaptors or GST immobilized on glutathione beads. Bound His-GIV-CT was analyzed by immunoblotting (IB) with anti-His mAb. pY GIV-CT, but not GIV-CT specifically bound the C-terminal SH2 domain of p85α (lane 3), and weakly to the N-terminal SH2 domain of p85α (lane 2). […] Mock-treated GIV-CT and in vitro EGFR or Src-phosphorylated (pY GIV-CT) His-GIV-CT were incubated with ˜35 μg of GST-p85α-CSH2 adaptor or GST immobilized on glutathione beads. Bound His-GIV CT was analyzed by immunoblotting (IB) with anti-His mAb. GIV CT bound p85α-CSH2 exclusively after phosphorylation by EGFR and Src-kinases (lanes 3, 4), but not when sham-treated (lane 2). […] HeLa cells were starved (0 min), and subsequently stimulated with EGF for indicated time periods prior to lysis. Equal aliquots of lysates (bottom) were incubated with anti-GIV (CT Ab; lanes 1-3) or a mix (M) of them was incubated with pre-immune IgG Immune complexes (top) were analyzed for the presence of endogenous GIV, phosphotyrosine (pTyr) and p85α by immunoblotting (IB). […] Equal aliquots of lysates (bottom) were treated with anti-GIVCT Ab or preimmune IgG Immunoprecipitated complexes (top) were analyzed for GIV and p85α by immunoblotting (IB). […]

Chain of endogenous SHP-1 of HEK cells (P29350 whole entry): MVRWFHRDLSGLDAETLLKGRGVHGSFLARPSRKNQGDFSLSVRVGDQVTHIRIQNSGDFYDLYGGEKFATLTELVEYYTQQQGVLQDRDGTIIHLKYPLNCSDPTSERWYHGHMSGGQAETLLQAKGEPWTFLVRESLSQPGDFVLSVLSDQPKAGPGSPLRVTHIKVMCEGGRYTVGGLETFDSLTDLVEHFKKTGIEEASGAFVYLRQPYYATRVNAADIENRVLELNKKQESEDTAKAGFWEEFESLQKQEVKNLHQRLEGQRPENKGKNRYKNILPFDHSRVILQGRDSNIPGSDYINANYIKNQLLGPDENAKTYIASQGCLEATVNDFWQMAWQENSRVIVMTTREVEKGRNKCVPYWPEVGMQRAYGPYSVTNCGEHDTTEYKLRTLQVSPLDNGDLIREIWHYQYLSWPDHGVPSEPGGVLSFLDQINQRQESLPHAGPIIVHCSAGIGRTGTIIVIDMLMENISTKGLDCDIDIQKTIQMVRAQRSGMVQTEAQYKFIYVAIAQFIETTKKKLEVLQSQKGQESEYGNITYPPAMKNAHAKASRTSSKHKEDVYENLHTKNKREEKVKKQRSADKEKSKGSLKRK

B1: endogenous Gαi3 of HEK cells (other, UniProt P08754 2-354, looked up)
chain: GCTLSAEDKAAVERSKMIDRNLREDGEKAAKEVKLLLLGAGESGKSTIVKQMKIIHEDGYSEDECKQYKVVVYSNTIQSIIAIIRAMGRLKIDFGEAARADDARQLFVLAGSAEEGVMTPELAGVIKRLWRDGGVQACFSRSREYQLNDSASYYLNDLDRISQSNYIPTQQDVLRTRVKTTGIVETHFTFKDLYFKMFDVGGQRSERKKWIHCFEGVTAIIFCVALSDYDLVLAEDEEMNRMHESMKLFDSICNNKWFTETSIILFLNKKDLFEEKIKRSPLTICYPEYTGSNTYEEAAAYIQCQFEDLNRRKDTKEIYTHFTCATDTKNVQFVFDAVTDVIIKNNLKECGLY
On to B1, for which the binding result in assay [1] is “no binding”.

B2: His-GIV-CT (aa 1660-1870), wild-type, not phosphorylated (mock- or sham-treated) (other)
chain: SETLESRHHKIKTGSPGSEVVTLQQFLEESNKLTSVQIKSSSQENLLDEVMKSLSVSSDFLGKDKPVSCGLARSVSGKTPGDFYDRRTTKPEFLRPGPRKTEDTYFISSAGKPTPGTQGKIKLVKESSLSRQSKDSNPYATLPRASSVISTAEGTTRRTSIHDFLTKDSRLPISVDSPPAAADSNTTAASNVDKVQESRNSKSRSREQQSS
notes: Expressed in E. coli; also called mock-WT; mock-treated GIV-CT; not shown: hexahistidine (6xHis) tag of pET28b
Take B2: in the assay with His-Gαi3, the “steady-state GTPase activity of His-Gαi3” value is ~1.7 fold over the basal activity. Besides, the binding result in the assay with GST (alone) [2] is recorded as “no binding (tested: ˜3 µg His-GIV-CT, ˜30 µg GST)”.

B3: His-GIV-CT (aa 1660-1870), wild-type, phosphorylated in vitro by recombinant EGFR kinase (other)
chain: B2 chain
modifications: phosphotyrosine at Y1764 and Y1798 (sites found by mass spectrometry after EGFR kinase; EGFR prefers Y1764)
notes: also called pY GIV-CT; pY GIV-CT (EGFR); not shown: hexahistidine (6xHis) tag of pET28b
With B3, the “steady-state GTPase activity of His-Gαi3” value in the assay with His-Gαi3 was ~1.7 fold over the basal activity. The binding result with GST (alone) [3] was “no binding”.

The values are drawn from patent US20140234872A1 (University of California, published 2014).
